Patent US20090148437A1

Assays:
[1] = target: human TNFR1 (soluble recombinant protein) (human) (UniProt P19438); test: phage ELISA, 1 nM TNFRI coat; no trypsin; phage input 1.13E+10
[2] = target: human TNFR1 (soluble recombinant protein) (human) (UniProt P19438); test: phage ELISA, 1 nM TNFRI coat; no trypsin; phage input 1.41E+09
[3] = target: human TNFR1 (soluble recombinant protein) (human) (UniProt P19438); test: phage ELISA, 1 nM TNFRI coat; no trypsin; phage input 2.26E+10
[4] = target: human TNFR1 (soluble recombinant protein) (human) (UniProt P19438); test: phage ELISA, 1 nM TNFRI coat; no trypsin; phage input 2.82E+09
[5] = target: human TNFR1 (soluble recombinant protein) (human) (UniProt P19438); test: phage ELISA, 1 nM TNFRI coat; no trypsin; phage input 3.52E+08
[6] = target: human TNFR1 (soluble recombinant protein) (human) (UniProt P19438); test: phage ELISA, 1 nM TNFRI coat; no trypsin; phage input 5.64E+09
[7] = target: human TNFR1 (soluble recombinant protein) (human) (UniProt P19438); test: phage ELISA, 1 nM TNFRI coat; no trypsin; phage input 7.05E+08
[8] = target: human TNFR1 (soluble recombinant protein) (human) (UniProt P19438); test: phage ELISA, 1 nM TNFRI coat; 1 mg/ml trypsin; phage input 1.13E+10
[9] = target: human TNFR1 (soluble recombinant protein) (human) (UniProt P19438); test: phage ELISA, 1 nM TNFRI coat; 1 mg/ml trypsin; phage input 1.41E+09
[10] = target: human TNFR1 (soluble recombinant protein) (human) (UniProt P19438); test: phage ELISA, 1 nM TNFRI coat; 1 mg/ml trypsin; phage input 2.26E+10
[11] = target: human TNFR1 (soluble recombinant protein) (human) (UniProt P19438); test: phage ELISA, 1 nM TNFRI coat; 1 mg/ml trypsin; phage input 2.82E+09
[12] = target: human TNFR1 (soluble recombinant protein) (human) (UniProt P19438); test: phage ELISA, 1 nM TNFRI coat; 1 mg/ml trypsin; phage input 3.52E+08
[13] = target: human TNFR1 (soluble recombinant protein) (human) (UniProt P19438); test: phage ELISA, 1 nM TNFRI coat; 1 mg/ml trypsin; phage input 7.05E+08
[14] = target: human TNFR1 (soluble recombinant protein) (human) (UniProt P19438); test: phage ELISA, 1 nM TNFRI coat; 10 µg/ml trypsin; phage input 1.13E+10
[15] = target: human TNFR1 (soluble recombinant protein) (human) (UniProt P19438); test: phage ELISA, 1 nM TNFRI coat; 10 µg/ml trypsin; phage input 1.41E+09
[16] = target: human TNFR1 (soluble recombinant protein) (human) (UniProt P19438); test: phage ELISA, 1 nM TNFRI coat; 10 µg/ml trypsin; phage input 2.26E+10
[17] = target: human TNFR1 (soluble recombinant protein) (human) (UniProt P19438); test: phage ELISA, 1 nM TNFRI coat; 10 µg/ml trypsin; phage input 2.82E+09
[18] = target: human TNFR1 (soluble recombinant protein) (human) (UniProt P19438); test: phage ELISA, 1 nM TNFRI coat; 10 µg/ml trypsin; phage input 3.52E+08
[19] = target: human TNFR1 (soluble recombinant protein) (human) (UniProt P19438); test: phage ELISA, 1 nM TNFRI coat; 10 µg/ml trypsin; phage input 5.64E+09
[20] = target: human TNFR1 (soluble recombinant protein) (human) (UniProt P19438); test: phage ELISA, 1 nM TNFRI coat; 10 µg/ml trypsin; phage input 7.05E+08
[21] = target: human TNFR1 (soluble recombinant protein) (human) (UniProt P19438); test: phage ELISA, 1 nM TNFRI coat; 100 µg/ml trypsin; phage input 1.13E+10
[22] = target: human TNFR1 (soluble recombinant protein) (human) (UniProt P19438); test: phage ELISA, 1 nM TNFRI coat; 100 µg/ml trypsin; phage input 1.41E+09
[23] = target: human TNFR1 (soluble recombinant protein) (human) (UniProt P19438); test: phage ELISA, 1 nM TNFRI coat; 100 µg/ml trypsin; phage input 2.26E+10
[24] = target: human TNFR1 (soluble recombinant protein) (human) (UniProt P19438); test: phage ELISA, 1 nM TNFRI coat; 100 µg/ml trypsin; phage input 2.82E+09
[25] = target: human TNFR1 (soluble recombinant protein) (human) (UniProt P19438); test: phage ELISA, 1 nM TNFRI coat; 100 µg/ml trypsin; phage input 3.52E+08
[26] = target: human TNFR1 (soluble recombinant protein) (human) (UniProt P19438); test: phage ELISA, 1 nM TNFRI coat; 100 µg/ml trypsin; phage input 5.64E+09
[27] = target: human TNFR1 (soluble recombinant protein) (human) (UniProt P19438); test: phage ELISA, 1 nM TNFRI coat; 100 µg/ml trypsin; phage input 7.05E+08
[28] = target: human TNFR1 (soluble recombinant protein) (human) (UniProt P19438); test: phage ELISA, plate coated with 1 nM TNFRI, anti-M13-HRP; no trypsin (0 µg/ml); phage input 4.51E+10
[29] = target: human TNFR1 (soluble recombinant protein) (human) (UniProt P19438); test: phage ELISA, plate coated with 1 nM TNFRI, anti-M13-HRP; phage pre-treated 1 h RT with 1 mg/ml trypsin; phage input 4.51E+10
[30] = target: human TNFR1 (soluble recombinant protein) (human) (UniProt P19438); test: phage ELISA, plate coated with 1 nM TNFRI, anti-M13-HRP; phage pre-treated 1 h RT with 10 µg/ml trypsin; phage input 4.51E+10
[31] = target: human TNFR1 (soluble recombinant protein) (human) (UniProt P19438); test: phage ELISA, plate coated with 1 nM TNFRI, anti-M13-HRP; phage pre-treated 1 h RT with 100 µg/ml trypsin; phage input 4.51E+10

Sequence of human TNFR1 (soluble recombinant protein) (human) (P19438 30-211 limits assumed): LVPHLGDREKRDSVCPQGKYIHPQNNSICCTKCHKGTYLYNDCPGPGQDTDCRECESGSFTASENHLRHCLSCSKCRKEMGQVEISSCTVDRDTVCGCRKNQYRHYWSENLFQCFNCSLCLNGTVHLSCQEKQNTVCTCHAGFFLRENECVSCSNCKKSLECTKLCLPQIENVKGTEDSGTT

With DOM1h-131 the phage ELISA read-out [1] was 0.949, the phage ELISA read-out [2] was 0.85 and the phage ELISA read-out [3] was 0.944. It also gave a phage ELISA read-out [4] of 0.946, a phage ELISA read-out [5] of 0.577 and a phage ELISA read-out [6] of 0.962. For the same substance, the phage ELISA read-out [7] was 0.705, the phage ELISA read-out [8] was 0.183 and the phage ELISA read-out [9] was 0.089. The phage ELISA read-out [10] was 0.229, the phage ELISA read-out [11] was 0.114 and the phage ELISA read-out [12] was 0.08. The phage ELISA read-out [13] was 0.084, the phage ELISA read-out [14] was 0.86 and the phage ELISA read-out [15] was 0.409. For the same substance, the phage ELISA read-out [16] was 0.802, the phage ELISA read-out [17] was 0.573 and the phage ELISA read-out [18] was 0.213. For the same substance, the phage ELISA read-out [19] was 0.695, the phage ELISA read-out [20] was 0.286 and the phage ELISA read-out [21] was 0.284. For the same substance, the phage ELISA read-out [22] was 0.115, the phage ELISA read-out [23] was 0.377 and the phage ELISA read-out [24] was 0.141. For the same substance, the phage ELISA read-out [25] was 0.084, the phage ELISA read-out [26] was 0.196 and the phage ELISA read-out [27] was 0.084. For the same substance, the phage ELISA read-out [28] was 0.916, the phage ELISA read-out [29] was 0.284 and the phage ELISA read-out [30] was 0.784. For the same substance, the phage ELISA read-out [31] was 0.418.
